PMC7496778, “Characterizing the original anti‐C5 function‐blocking antibody, BB5.1, for species specificity, mode of action and interactions with C5” (Immunology, 2020)

B1: BB5.1 anti-C5 monoclonal antibody (intact mAb) (antibody, V domains shown)
VH: QVQLQQPGAELVRPGTSVKLSCKASGYTFTSSWMHWVKQRPGQGLEWIGVIDPSDSYTNYNQKFKGKATLTVDTSSSTAYMQLSSLTSEDSAVYYCARGGGSSYNRYFDVWGTGTTVTVSS
VL: NIMMTQSPSSLAVSAGEKVTMSCKSSQSVLYSSNQKNYLAWYQQKPGQSPKLLIYWASTRESGVPDRFTGSGSGTDFTLTISSVQAEDLAVYYCHQYLSSRTFGGGTKLEIK
notes: full variable heavy domain; full variable light domain; raised in C5-deficient mice; also called BB5.1 mAb; full-length BB5.1; source: BB5.1 hybridoma (re-cloned), purified on HiTrap Protein G sepharose
B2: BB5.1 Fab fragments (Fab, V domains shown)
VH: QVQLQQPGAELVRPGTSVKLSCKASGYTFTSSWMHWVKQRPGQGLEWIGVIDPSDSYTNYNQKFKGKATLTVDTSSSTAYMQLSSLTSEDSAVYYCARGGGSSYNRYFDVWGTGTTVTVSS
VL: NIMMTQSPSSLAVSAGEKVTMSCKSSQSVLYSSNQKNYLAWYQQKPGQSPKLLIYWASTRESGVPDRFTGSGSGTDFTLTISSVQAEDLAVYYCHQYLSSRTFGGGTKLEIK
notes: as the VH of m1; as the VL of m1; Fab of a mouse IgG1, kappa antibody; also called BB5.1-derived Fab fragment; source: immobilized ficin digestion of purified BB5.1 mAb; Fc-containing proteins removed on Protein A or G column

What was measured:
[1] = molecular target: T1, human complement component 5 (C5) (Homo sapiens, UniProt P01031); assay: ELISA; direct ELISA; plates coated with mouse or human C5 (0.5 µg/ml, bicarbonate buffer pH 9.6); BB5.1 intact mAb 5-0 µg/ml or Fab 20-0 µg/ml in 0.2% BSA-PBS, 1 hr at 37°; HRP-labelled secondary antibody; details: both partners purified
T1 construct: complement C5 beta chain, human, cut from the C5 precursor; complement C5 alpha chain, human, cut from the C5 precursor; also called human C5; source: purified in-house
T1 sequence (P01031 whole entry, looked up): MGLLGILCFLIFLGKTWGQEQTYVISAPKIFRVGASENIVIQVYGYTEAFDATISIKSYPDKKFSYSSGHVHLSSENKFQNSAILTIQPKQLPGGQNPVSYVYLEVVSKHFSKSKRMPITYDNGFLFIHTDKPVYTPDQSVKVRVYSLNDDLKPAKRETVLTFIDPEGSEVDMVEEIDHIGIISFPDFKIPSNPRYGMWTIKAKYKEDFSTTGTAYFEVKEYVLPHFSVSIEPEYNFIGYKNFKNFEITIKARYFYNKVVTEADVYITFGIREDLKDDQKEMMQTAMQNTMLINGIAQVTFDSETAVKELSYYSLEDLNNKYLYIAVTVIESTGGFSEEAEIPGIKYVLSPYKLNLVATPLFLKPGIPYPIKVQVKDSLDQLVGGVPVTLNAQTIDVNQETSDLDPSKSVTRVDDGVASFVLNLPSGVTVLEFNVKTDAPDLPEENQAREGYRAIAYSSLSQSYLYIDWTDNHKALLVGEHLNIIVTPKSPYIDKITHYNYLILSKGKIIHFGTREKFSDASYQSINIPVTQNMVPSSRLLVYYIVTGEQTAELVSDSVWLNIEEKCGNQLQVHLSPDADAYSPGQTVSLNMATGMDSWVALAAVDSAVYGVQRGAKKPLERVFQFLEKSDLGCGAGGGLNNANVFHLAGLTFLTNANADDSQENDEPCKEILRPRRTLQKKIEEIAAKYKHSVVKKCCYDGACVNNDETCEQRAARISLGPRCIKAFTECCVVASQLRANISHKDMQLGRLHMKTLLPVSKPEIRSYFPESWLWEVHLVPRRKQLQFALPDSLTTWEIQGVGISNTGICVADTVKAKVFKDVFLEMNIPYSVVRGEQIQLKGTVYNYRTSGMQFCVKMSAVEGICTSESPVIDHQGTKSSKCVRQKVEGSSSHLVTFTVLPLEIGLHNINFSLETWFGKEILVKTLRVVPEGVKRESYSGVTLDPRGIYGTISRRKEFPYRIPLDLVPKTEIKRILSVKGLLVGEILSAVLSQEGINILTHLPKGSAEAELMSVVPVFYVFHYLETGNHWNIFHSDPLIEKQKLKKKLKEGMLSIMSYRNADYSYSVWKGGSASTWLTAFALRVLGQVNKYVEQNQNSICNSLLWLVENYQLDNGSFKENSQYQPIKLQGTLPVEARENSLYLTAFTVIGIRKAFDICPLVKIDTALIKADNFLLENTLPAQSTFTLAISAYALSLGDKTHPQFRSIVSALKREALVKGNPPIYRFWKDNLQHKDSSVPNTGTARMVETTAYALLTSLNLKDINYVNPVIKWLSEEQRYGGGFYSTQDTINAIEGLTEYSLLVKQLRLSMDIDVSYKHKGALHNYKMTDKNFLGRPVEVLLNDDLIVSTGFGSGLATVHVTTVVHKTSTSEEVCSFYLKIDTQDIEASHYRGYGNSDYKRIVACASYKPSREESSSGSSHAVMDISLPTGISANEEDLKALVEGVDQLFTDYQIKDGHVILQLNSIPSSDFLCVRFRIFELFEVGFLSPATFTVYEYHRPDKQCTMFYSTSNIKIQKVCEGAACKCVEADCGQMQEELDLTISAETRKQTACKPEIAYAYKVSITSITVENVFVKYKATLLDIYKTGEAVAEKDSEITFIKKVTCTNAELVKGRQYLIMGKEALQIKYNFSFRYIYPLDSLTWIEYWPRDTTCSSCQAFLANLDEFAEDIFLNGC

[2] = molecular target: T2, mouse complement component 5 (C5) (Mus musculus, strain , UniProt P06684); assay: SPR; Biacore T200; BB5.1 immobilised on CM5 chip by amine coupling (~200 RU); mouse C5 flowed at 52-4 nM in HBS-EP (10 mM HEPES, 150 mM NaCl, 0.05% surfactant P20), 30 µl/min, 25°; Langmuir 1:1 binding model; details: both partners purified
T2 construct: complement C5 beta chain (80 000 MW), mouse, cut from the C5 precursor; complement C5 alpha chain (115 000 MW), mouse, cut from the C5 precursor; also called mouse C5; intact C5; source: purified in-house

| Binder | binding result [1] | Kd [2] [nM] | koff [2] [s⁻¹] |
| --- | --- | --- | --- |
| B1 | no binding (tested: 5 µg/ml) | 8.1 | 0.0013 |
| B2 | no binding (tested: 20 µg/ml) | – | – |
